Data on one molecule can be found in patent US20250066450A1 (LASK PHARMA, published 2025).

For this assay, the target named is T1, BMP10 (UniProt O95393 317-424).
T1 sequence (looked up): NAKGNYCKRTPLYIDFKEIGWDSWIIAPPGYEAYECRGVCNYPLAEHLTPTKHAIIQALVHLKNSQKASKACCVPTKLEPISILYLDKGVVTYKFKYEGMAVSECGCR
The experiment in a line: Biacore (SPR); Fc fusion captured with anti-Fc antibody, ligand injected (FIG. 3B). Here is the method:
A Biacore™-based binding assay was used to compare ligand binding selectivity of the ALK6 variant-Fc dimeric complex (e.g., SEQ ID NO: 46) described above with that of ALK6 wt-Fc complexes (SEQ ID NO: 49). The Fc dimeric complexes were independently captured onto the system using an anti-Fe antibody. Ligands were injected and allowed to flow over the captured receptor protein.
A general note: Surface plasmon resonance follows binding to a sensor surface in real time, without labels.

B1: ALK6-Fc fusion polypeptide (SEQ ID NO: 89) (Fc fusion)
chain: KKEDGESTAPTPRPKVLRCYCSGHCPEDSVNNICSTDGYCFTMIEEDDSGLPVVTSGCLKLEGSDFQCRDTPIPHQRRSIECCTERNECNKDLHPTLPPVVIGPFFDGSIRTGGGGSGGGGSGGGGSGGGGSTHTCPPCPAPEAAGGPSVFLFPPKPKDTLMISRTPEVTCVVVDVSHEDPEVKFNWYVDGVEVHNAKTKPREEQYNSTYRVVSVLTVLHQDWLNGKEYKCKVSNKALPAPIEKTISKAKGQPREPQVYTLPPSREEMTKNQVSLTCLVKGFYPSDIAVEWESNGQPENNYKTTPPVLDSDGSFFLYSKLTVDKSRWQQGNVFSCSVMHEALHNHYTQKSLSLSPG
With B1, the binding result is “no binding”.
